Two substances from PMC4948116 can be followed below.

Test in all cases: SPR
One experiment concerns the target CD32A-131H (human) (UniProt P12318).
The target of a further experiment is CD32A-131R (human).
In experiment [1] the target is Human recombinant CD16A-158V (human).
Experiment [2] concerns the target Human recombinant CD16A-158F (human) (UniProt P08637).
Experiment [3] concerns the target Human recombinant CD32B (human) (UniProt P31994).
For experiment [4], the target named is Human recombinant CD16B (human) (UniProt O75015).
Sequence of UniProt O75015 (O75015 17-200): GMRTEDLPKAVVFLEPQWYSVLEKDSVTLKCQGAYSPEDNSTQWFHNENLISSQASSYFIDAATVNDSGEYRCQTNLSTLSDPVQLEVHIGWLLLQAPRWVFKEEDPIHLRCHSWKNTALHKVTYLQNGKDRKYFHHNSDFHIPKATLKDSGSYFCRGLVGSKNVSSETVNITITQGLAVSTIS

Sequence of UniProt P08637 (P08637 17-208): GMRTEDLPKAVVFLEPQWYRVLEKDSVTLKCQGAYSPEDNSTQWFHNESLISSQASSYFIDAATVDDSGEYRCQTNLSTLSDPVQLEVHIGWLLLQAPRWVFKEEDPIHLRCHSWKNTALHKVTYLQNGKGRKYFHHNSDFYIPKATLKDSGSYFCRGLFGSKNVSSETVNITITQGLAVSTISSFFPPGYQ
Sequence of UniProt P12318 (P12318 34-317): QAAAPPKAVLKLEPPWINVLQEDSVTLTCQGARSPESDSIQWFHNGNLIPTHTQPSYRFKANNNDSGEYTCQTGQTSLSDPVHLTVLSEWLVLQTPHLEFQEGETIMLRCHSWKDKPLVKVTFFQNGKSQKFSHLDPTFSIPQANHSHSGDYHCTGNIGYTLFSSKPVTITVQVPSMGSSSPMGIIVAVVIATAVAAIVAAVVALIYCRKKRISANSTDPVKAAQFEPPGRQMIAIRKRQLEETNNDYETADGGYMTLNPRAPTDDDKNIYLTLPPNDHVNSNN
Sequence of UniProt P31994 (P31994 43-217): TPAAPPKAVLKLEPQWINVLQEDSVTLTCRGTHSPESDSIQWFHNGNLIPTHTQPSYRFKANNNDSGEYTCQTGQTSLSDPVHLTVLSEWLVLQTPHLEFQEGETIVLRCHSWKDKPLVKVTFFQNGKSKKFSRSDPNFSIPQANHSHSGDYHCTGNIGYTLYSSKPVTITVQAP

In the case of hu3F8-IgG1 (antibody), the Kd was 541 nM with CD32A-131H (human); 786 nM with CD32A-131R (human); 726 nM in experiment [1]; 2090 nM in experiment [2]; 2400 nM in experiment [3]; 2030 nM in experiment [4]. The ka1 (two-state reaction, first step) in experiment [1] was determined as 134000 M⁻¹ s⁻¹. For the same substance, the kd1 (two-state reaction, first step) in experiment [1] stood at 0.212 s⁻¹. The kd2 (two-state reaction, second step) in experiment [1] turned out to be 0.00897 s⁻¹.
Take hu3F8-IgG1-DEL (antibody): the affinity relative to hu3F8-IgG1 on CD16A(158F) in experiment [2] was 16 fold.
